Reference: patent publication US20140023715A1 (EMORY UNIVERSITY, published 2014)

Target: T1, uPAR (species and form not stated)
T1 construct: also called uPA receptor
T1 sequence (Q03405 23-305): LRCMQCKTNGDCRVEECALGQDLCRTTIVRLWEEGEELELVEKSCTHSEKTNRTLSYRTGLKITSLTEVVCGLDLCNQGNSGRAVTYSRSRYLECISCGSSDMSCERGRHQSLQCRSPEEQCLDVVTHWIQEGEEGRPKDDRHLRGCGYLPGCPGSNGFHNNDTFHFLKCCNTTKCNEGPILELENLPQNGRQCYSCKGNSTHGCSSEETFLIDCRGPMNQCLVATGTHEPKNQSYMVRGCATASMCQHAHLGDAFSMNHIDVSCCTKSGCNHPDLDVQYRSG

Kd: < 1 nM
B1: recombinant mouse amino terminal fragment (ATF, 135 aa) of uPA (ligand, UniProt P06869 21-155, looked up)
chain: GSVLGAPDESNCGCQNGGVCVSYKYFSRIRRCSCPRKFQGEHCEIDASKTCYHGNGDSYRGKANTDTKGRPCLAWNAPAVLQKPYNAHRPDAISLGLGKHNYCRNPDNQKRPWCYVQIGLRQFVQECMVHDCSLS
notes: range 1-135; 17 kDa, made in E. coli BL21; also called mouse ATF peptide; murine ATF; not shown: tag from vector pET101/D-TOPO (purified on Ni-NTA)
